US20120282173A1 (FORERUNNER PHARMA RESEARCH, published 2012)

Experiments:
[1] = target: T1, HB-EGF expressed on the cell membrane (proHB-EGF), from pMCN_HB-EGF in DG44 and SKOV-3 cells or intrinsic in … (human, UniProt Q99075 20-208); assay: FACS on HB-EGF_DG44 cells, FITC-labeled anti-human IgG, Geo-Mean against concentration; the text says ED50, about
T1 construct: Full-length human HB-EGF without the cleavage-site mutation

[2] = target: T2, active-form HB-EGF protein (R&D Systems, Inc., 259-HE) (human, UniProt Q99075 63-148); assay: ELISA on plate coated with 1 ug/mL HB-EGF protein (R&D 259-HE), AP-labeled anti-human IgG; the text says ED50, about
T2 construct: Bought protein; also called sHB-EGF; secretory HB-EGF

[3] = target: proHB-EGF mutated at the protease cleavage site, expressed on Ba/F3 cells (HB-EGF_Ba/F3) (human) (UniProt Q99075); assay: FACS, hybridoma culture supernatant on HB-EGF_Ba/F3 cells, EXP. 1 (no-mAb 19.1)
[4] = target: T2, active-form HB-EGF protein (R&D …); assay: cell-based or functional assay
[5] = target: proHB-EGF mutated at the protease cleavage site, expressed on Ba/F3 cells (HB-EGF_Ba/F3) (human) (UniProt Q99075); assay: FACS, hybridoma culture supernatant on HB-EGF_Ba/F3 cells, EXP. 2 (no-mAb 6.9)
[6] = target: T1, HB-EGF expressed on the cell membrane …; assay: cell-based or functional assay

T2 sequence (Q99075 63-148 limits assumed): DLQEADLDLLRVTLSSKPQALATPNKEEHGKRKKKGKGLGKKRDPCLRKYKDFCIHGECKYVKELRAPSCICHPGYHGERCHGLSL
T1 sequence (Q99075 20-208 limits assumed): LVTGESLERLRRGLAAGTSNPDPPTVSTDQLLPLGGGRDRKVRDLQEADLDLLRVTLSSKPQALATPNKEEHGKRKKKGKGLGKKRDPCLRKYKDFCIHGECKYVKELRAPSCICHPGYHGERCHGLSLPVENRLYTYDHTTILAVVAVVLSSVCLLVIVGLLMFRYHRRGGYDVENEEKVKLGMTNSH

B1: chHE39, human chimeric antibody derived from HE39 antibody (antibody, V domains shown)
VH: EVQLQQSGPELMKPGASVKMSCKASGYIFTDYYMNWVKQSHGKSLEWIGRVNPNNGGTSYSQKFKDKATLTVDKSLNTAYMQVNSLTSEDSAVYYCARIYYGGSDWGQGTTLTVSS
VL: EIVMTQTPLSLSVTIGQPASISCKSSQSLLYTTGKTYLNWLQQRPGQAPKHLMYQVSKLVPGIPDRFSGSGSETDFTLKISRVEAEDLGVYYCLQGTYYPHTFGSGTKLEIKR
notes: Mouse HE39 variable regions linked to human IgG1 constant regions
**Q.** What does the source list for B1?
**A.** EC50 [1]: 5300 pM; EC50 [2]: 420 pM

B2: HC-15 antibody (antibody, V domains shown)
VH: EVQLQQSGPELVKPGASVKISCKASGYSFTGYYMHWVKQSPEKRLEWIGEINPRTGITTYNQKFKAKATLTVDKSSSTAYMQLKSLTSEDSAVYYCARVGSSGPFTYWGQGTLVTVSA
VL: DIVMTQSPSSLSVSAGDKVTMSCKSSQSLLNSRNQKNYLAWYQQKPWQPPKLLIYGASTRESGVPDRFTGSGSGTDFTLTISSVQAEDLAVYYCQNDYSYPFTFGTGTKLEIK
**Q.** Which results are given for B2?
**A.** FACS (GEO-mean) [3]: 594 GEO-mean; EC50 of the growth-inhibiting effect on EGFR_Ba/F3 cells [4]: 3800 pM; FACS (GEO-mean) [5]: 234 GEO-mean

B3: chHC15, human chimeric antibody derived from HC15 antibody (antibody, human IgG1, kappa, V domains shown)
VH: B2 VH
VL: DIVMTQSPSSLSVSAGDKVTMSCKSSQSLLNSRNQKNYLAWYQQKPWQPPKLLIYGASTRESGVPDRFTGSGSGTDFTLTISSVQAEDLAVYYCQNDYSYPFTFGTGTKLEIKR
**Q.** For B3, which EC50 [1] is on record?
**A.** Its EC50 is 3300 pM.

**Q.** What about the EC50 [2] of the same binder?
**A.** Its EC50 is 210 pM.

B4: saporin-labeled HC-15 antibody (HC-SAP) (antibody, V domains shown)
VH: B2 VH
VL: B2 VL
modifications: antibody labeled with an average of 2.4 saporin molecules; sites not stated
**Q.** With B4 as the binder, how does the “EC50 of cell death induction, ES-2 cells (WST-8)” value [6] read?
**A.** Its value is 90 pM.

**Q.** What about the “EC50 of cell death induction, MCAS cells (WST-8)” value [6] of the same binder?
**A.** Its value is 860 pM.

**Q.** And the “EC50 of cell death induction, SKM-1 cells (WST-8)” value [6]?
**A.** Its value is 20 pM.

**Q.** And the “EC50 of cell death induction, THP-1 cells (WST-8)” value [6]?
**A.** The value was 10 pM.

**Q.** What about the “EC50 of cell death induction, U937 cells (WST-8)” value [6] of the same binder?
**A.** Its value is 330 pM.
